Target: M53 protein (Streptococcus pyogenes) (UniProt P49054)
Assay: SPR; screen: 200 nM Plg injected for 2100 s at 10 μL/min over immobilised Mrp or control M protein, 900 s dissociation; no Fg

Chain of UniProt P49054 (P49054 30-384): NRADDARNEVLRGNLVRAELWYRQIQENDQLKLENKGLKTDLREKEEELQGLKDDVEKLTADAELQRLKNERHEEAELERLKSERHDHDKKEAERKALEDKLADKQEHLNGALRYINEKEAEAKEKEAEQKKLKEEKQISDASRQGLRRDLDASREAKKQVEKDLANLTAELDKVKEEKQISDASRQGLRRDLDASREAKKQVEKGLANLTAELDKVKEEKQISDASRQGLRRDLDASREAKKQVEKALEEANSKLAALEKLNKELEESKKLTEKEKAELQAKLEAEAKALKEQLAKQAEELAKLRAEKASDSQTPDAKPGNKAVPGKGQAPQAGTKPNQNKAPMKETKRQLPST

human Glu-plasminogen (natural protein)
Kd: < 50 nM

Reference: publication PMC11917135
